These results are taken from patent US20240166702A1 (published 2024).

This assay has as its target EGFR kinase domain (UniProt P00533 696-1022, fluorescent dye attached through the His-tag). Nature of the assay: MST.

B1: Sorting Nexin 1 (SNX1) Bar domain (other)
chain: MNESDIWFEEKLQEVECEEQRLRKLHAVVETLVNHRKELALNTAQFAKSLAMLGSSEDNTALSRALSQLAEVEEKIEQLHQEQANNDFFLLAELLSDYIRLLAIVRAAFDQRMKTWQRWQDAQATLQKKREAEARLLWANKPDKLQQAKDEILEWESRVTQYERDFERISTVVRKEVIRFEKEKSKDFKNHVIKYLETLLYSQQQLAKYWEAFLPEAKAIS
B1: the Kd stood at 2.9 µM.
